This passage reports protein stability index results from the supplement of paper PMC10567573.

B1: PPP2R2C (parent)
chain: YSSSKGSLRLCDMRAAALCDKHSK
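Also: lentivirally expressed fusions sorted by FACS into six bins by GFP to DsRed ratio, PSI derived from sequencing read proportions per bin multiplied by bin number.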

Variants of B1 are the subject of this series. Kind of series: protein stability index of a GFP-peptide fusion (GPS, HEK-293T) (PSI 1-6); higher = more stable. To be noted: c terminus: a fixed tail appended.
In the case of YSSSKGSLRLCDMRAAAMCDKHSK [L18M], the protein stability index was found to be 1.13.

On to YSSSKGSLRLCDMRAAAICDKHSK [L18I], for which the protein stability index was 1.96. Next, YSSSKGSLRLCDMRAAAKCDKHSK [L18K]: 1.73; YSSSKGSLRLCDMRAAAGCDKHSK [L18G]: 1.52. In the case of YSSSKGSLRLCDMRAAASCDKHSK [L18S] it was 1.79; in that of YSSSKGSLRLCDMRAAAACDKHSK [L18A], 2.15.

In the case of YSSSKGSLRLCDMRAAAHCDKHSK [L18H], the protein stability index was found to be 2.03.

For the variant YSSSKGSLRLCDMRAAAYCDKHSK [L18Y], the protein stability index was 1.8. Next, YSSSKGSLRLCDMRAAAFCDKHSK [L18F]: 1.69; YSSSKGSLRLCDMRAAACCDKHSK [L18C]: 1.55; YSSSKGSLRLCDMRAAARCDKHSK [L18R]: 1.96.

With YSSSKGSLRLCDMRAAATCDKHSK [L18T], the protein stability index was 1.81. In the case of YSSSKGSLRLCDMRAAAQCDKHSK [L18Q] it was 2.17; in that of YSSSKGSLRLCDMRAAAPCDKHSK [L18P], 1.58; in that of YSSSKGSLRLCDMRAAAVCDKHSK [L18V], 2.02. Next, YSSSKGSLRLCDMRAAANCDKHSK [L18N]: 1.65. Consider YSSSKGSLRLCDMRAAAECDKHSK [L18E], for which the protein stability index stood at 1.9. In the case of YSSSKGSLRLCDMRAAADCDKHSK [L18D] it was 1.48; in that of YSSSKGSLRLCDMRAAAWCDKHSK [L18W], 1.44.

As to YSSSKGSLRLCDMRAAALDDKHSK [C19D], the protein stability index came out at 2.3.

In the case of YSSSKGSLRLCDMRAAALNDKHSK [C19N], the protein stability index stood at 1.58. On to YSSSKGSLRLCDMRAAALMDKHSK [C19M], for which the protein stability index amounted to 1.68. Next, YSSSKGSLRLCDMRAAALIDKHSK [C19I]: 2.03; YSSSKGSLRLCDMRAAALHDKHSK [C19H]: 1.56. Next, YSSSKGSLRLCDMRAAALADKHSK [C19A]: 1.74. In the case of YSSSKGSLRLCDMRAAALLDKHSK [C19L] it was 1.55; in that of YSSSKGSLRLCDMRAAALQDKHSK [C19Q], 1.69. Consider YSSSKGSLRLCDMRAAALFDKHSK [C19F], for which the protein stability index was 2.32. In the case of YSSSKGSLRLCDMRAAALRDKHSK [C19R], the protein stability index stood at 2.06. In the case of YSSSKGSLRLCDMRAAALPDKHSK [C19P] it was 1.84.

As to YSSSKGSLRLCDMRAAALKDKHSK [C19K], the protein stability index was 2.14. On to YSSSKGSLRLCDMRAAALEDKHSK [C19E], for which the protein stability index amounted to 1.62. Next, YSSSKGSLRLCDMRAAALGDKHSK [C19G]: 1.25. In the case of YSSSKGSLRLCDMRYAALCDKHSK [A15Y] it was 2.34; in that of YSSSKGSLRLCDMRWAALCDKHSK [A15W], 1.81; in that of YSSSKGSLRLCDMRFAALCDKHSK [A15F], 2.4. Next, YSSSKGSLRLCDMRDAALCDKHSK [A15D]: 1.72. Take YSSSKGSLRLCDMRNAALCDKHSK [A15N]: the protein stability index is 2.54. Next, YSSSKGSLRLCDMRTAALCDKHSK [A15T]: 2.09; YSSSKGSLRLCDMRQAALCDKHSK [A15Q]: 1.77.

As for YSSSKGSLRLCDMRRAALCDKHSK [A15R], the protein stability index came to 1.38. Next, YSSSKGSLRLCDMRSAALCDKHSK [A15S]: 2.31. Next, YSSSKGSLRLCDMRGAALCDKHSK [A15G]: 2.24.

YSSSKGSLRLCDMRMAALCDKHSK [A15M]: the protein stability index was 2.72. For YSSSKGSLRLCDMRKAALCDKHSK [A15K], the protein stability index is 1.58. In the case of YSSSKGSLRLCDMRCAALCDKHSK [A15C] it was 1.14; in that of YSSSKGSLRLCDMRPAALCDKHSK [A15P], 2.43; in that of YSSSKGSLRLCDMRIAALCDKHSK [A15I], 1.96. Next, YSSSKGSLRLCDMRVAALCDKHSK [A15V]: 1.6. Next, YSSSKGSLRLCDMREAALCDKHSK [A15E]: 2.61; YSSSKGSLRLCDMRLAALCDKHSK [A15L]: 1.54. For the variant YSSSKGSLRLCDMRHAALCDKHSK [A15H], the protein stability index came out at 1.78. In the case of YSSSKGSLRLCDMVAAALCDKHSK [R14V] it was 1.81. In the case of YSSSKGSLRLCDMYAAALCDKHSK [R14Y] it was 2.45; in that of YSSSKGSLRLCDMWAAALCDKHSK [R14W], 1.69. As for YSSSKGSLRLCDMTAAALCDKHSK [R14T], the protein stability index was 1.98. Next, YSSSKGSLRLCDMRAAWLCDKHSK [A17W]: 2.33; YSSSKGSLRLCDMRAAFLCDKHSK [A17F]: 2.36. In the case of YSSSKGSLRLCDMRAAPLCDKHSK [A17P] it was 2.1; in that of YSSSKGSLRLCDMRAAGLCDKHSK [A17G], 1.61. Next, YSSSKGSLRLCDMRAANLCDKHSK [A17N]: 3.18; YSSSKGSLRLCDMRAAVLCDKHSK [A17V]: 3.45; YSSSKGSLRLCDMRAAKLCDKHSK [A17K]: 1.85.

On to YSSSKGSLRLCDMRAAQLCDKHSK [A17Q], for which the protein stability index worked out at 3.18. Next, YSSSKGSLRLCDMRAAILCDKHSK [A17I]: 1.39; YSSSKGSLRLCDMRAAMLCDKHSK [A17M]: 1.79; YSSSKGSLRLCDMRAADLCDKHSK [A17D]: 1.51. Consider YSSSKGSLRLCDMRAASLCDKHSK [A17S], for which the protein stability index stood at 1.31.

As to YSSSKGSLRLCDMRAARLCDKHSK [A17R], the protein stability index is 1.78.

YSSSKGSLRLCDMRAALLCDKHSK [A17L]: the protein stability index is 1.75. For the variant YSSSKGSLRLCDMRAAELCDKHSK [A17E], the protein stability index amounted to 2.16. Next, YSSSKGSLRLCDMRAACLCDKHSK [A17C]: 2.06; YSSSKGSLRLCDMRAAHLCDKHSK [A17H]: 2.29; YSSSKGSLRLCDMRAAYLCDKHSK [A17Y]: 2.06.

In the case of YSSSKGSLRLCDMRAATLCDKHSK [A17T], the protein stability index came out at 1.52. In the case of YSSSKGSLRLCDMRAYALCDKHSK [A16Y] it was 1.63. Next, YSSSKGSLRLCDMRATALCDKHSK [A16T]: 1.97; YSSSKGSLRLCDMRAGALCDKHSK [A16G]: 2.55. Next, YSSSKGSLRLCDMRAQALCDKHSK [A16Q]: 2.18; YSSSKGSLRLCDMRACALCDKHSK [A16C]: 2.56. As to YSSSKGSLRLCDMRADALCDKHSK [A16D], the protein stability index turned out to be 2.85. In the case of YSSSKGSLRLCDMRAMALCDKHSK [A16M] it was 1.5. In the case of YSSSKGSLRLCDMRAEALCDKHSK [A16E] it was 2.28; in that of YSSSKGSLRLCDMRAKALCDKHSK [A16K], 2.53; in that of YSSSKGSLRLCDMRAHALCDKHSK [A16H], 2.06. In the case of YSSSKGSLRLCDMRASALCDKHSK [A16S] it was 2.02; in that of YSSSKGSLRLCDMRAWALCDKHSK [A16W], 1.23; in that of YSSSKGSLRLCDMRAIALCDKHSK [A16I], 1.84.

On to YSSSKGSLRLCDMRAPALCDKHSK [A16P], for which the protein stability index turned out to be 1.64.

As to YSSSKGSLRLCDMRALALCDKHSK [A16L], the protein stability index was 1.3. Next, YSSSKGSLRLCDMRAVALCDKHSK [A16V]: 1.82.

YSSSKGSLRLCDMRANALCDKHSK [A16N]: the protein stability index is 2.05. In the case of YSSSKGSLRLCDMRAFALCDKHSK [A16F] it was 2.2; in that of YSSSKGSLRLCDMRARALCDKHSK [A16R], 2.04.
